In assay [1] the target is synthetic monomeric Abeta1-40 peptide (UniProt P05067). The assay can be described thus: ELISA, peptide coated, antibody titrated.
In assay [2] the target is synthetic monomeric Abeta1-42 peptide (UniProt P05067). The assay can be described thus: ELISA, peptide coated, antibody titrated. For orientation: ELISA stands for enzyme-linked immunosorbent assay.
For assay [3], the target named is Abeta1-42 fibrils (UniProt P05067). The experiment in a line: ELISA, fibrils coated, antibody titrated.

Here are results for one molecule from patent publication US20100239570A1.

B1: antibody NI-103 (antibody, V domains shown)
VH: EVQLHQSGPELVKPGASVKISCKTSGYTFTEYTMHWVKQSHGKSLEWIGGVNPYNDNTSYIRKLQGKVTLTVDRSSSTAYMELRSLTSEDSAVYFCARYGGLRPYYFPMDFWGQGTSVTVSS
VL: QVVLSQSPAILSASPGERVTLTCRASSSVNYMHWYQQKPGSSPKAWIYATSNLASGVPDRFSASGSGTSYSLTISRVEAEDAATYYCQQWRTNPPTFGAGTKLELKR
In the case of B1, the EC50 worked out at 0.04 nM in assay [1], 0.061 nM in assay [2] and 0.07 nM in assay [3].

As a reminder, the EC50 is the concentration needed to bring the measured effect to its halfway point. Low readings indicate higher potency in that assay, high ones lower potency in that assay.
